Test results as given in paper PMC9505826, “A Peptide Inhibitor of the Human Cytomegalovirus Core Nuclear Egress Complex” (Pharmaceuticals, 2022).

B1: recombinant HCMV pUL50 (His-tagged) (natural protein)
chain: MEMNKVLHQDLVQATRRILKLGPSELRVTDAGLICKNPNYSVCDAMLKTDTVYCVEYLLSYWESRTDHVPCFIFKNTGCAVSLCCFVRAPVKLVSPARHVGEFNVLKVNESLIVTLKDIEEIKPSAYGVLTKCVVRKSNSASVFNIELIAFGPENEGEYENLLRELYAKKAASTS
notes: also called His-tagged pUL50
B2: Hook peptide (acetylated pUL53 hook peptide, residues 59-87) (peptide)
peptide: Ac-LTLHDLHDIFREHPELELKYLNMMKMAIT-NH2
notes: source: synthetic peptide (Fmoc solid-phase synthesis, HPLC purified)

Columns and labels:
[1] = target: T1, Fluo-NLS-CPP (fluoresceinylated; pUL53 NLS 18-27 joined to HIV-1 Tat 47-59) (human cytomegalovirus (HCMV) | human …); assay: fluorescence polarisation; 25 nM N-terminally fluoresceinylated peptide; recombinant pUL50 in two-fold serial dilutions from 20 µM; 0.1 M PB, 150 mM NaCl, 1 mM TCEP, pH 7.2, 0.01% Tween 20; conditions: both partners purified
T1 construct: also called Fluo-NLS-CPP peptide; source: synthetic peptide (Fmoc solid-phase synthesis, HPLC purified)

[2] = target: B1; assay: ELISA; competition: pUL53 (1 µg/mL) coated on Immulon plates; peptide in serial dilutions from 10 µM together with His-tagged pUL50 (0.78 µg/mL) for 2.5 h; detection with anti-His-HRP; 0.1 M phosphate buffer pH 7.2, 0.1% BSA, 0.01% Tween 20; conditions: both partners purified

B1 showed a Kd [1] greater than 10 µM.

For B2, the IC50 [2] was 0.125 µM.
